This is an account of results in paper PMC4103857, “Specific Interaction with Cardiolipin Triggers Functional Activation of Dynamin-Related Protein 1” (PLoS ONE, 2014).

Several values for one entry are separate records, joined by “and”; a condition that tells them apart may be missing. Equal values may be shown once.

In data set [1] the target is Dynamin-Related Protein 1 (Drp1) isoform 2 (human). Kind of data set: SEC; gel filtration of the purified untagged isoforms; data not shown. In general terms: SEC sorts molecules by how far they enter the pores of the column.
Data set [2] deals with the molecule itself. Described as above.
Data set [3] concerns the molecule itself. Kind of data set: SEC; Drp1 (1 uM) incubated with GTP (1 mM) without liposomes in KCl buffer with 4 mM MgCl2, 30 min, 37 C; Sephadex S200; fractions immunoblotted with anti-Drp1.

In general, stoichiometry N refers to a count of units in the complex or per binding partner.

Take “Dynamin-Related Protein 1 (Drp1) isoform 2 (natural protein)”: the stoichiometry N in data set [1] is 2 and 4.

B1: Dynamin-Related Protein 1 (Drp1) isoform 3 (natural protein, human, UniProt O00429-4 1-699, looked up)
chain: MEALIPVINKLQDVFNTVGADIIQLPQIVVVGTQSSGKSSVLESLVGRDLLPRGTGIVTRRPLILQLVHVSQEDKRKTTGEENGVEAEEWGKFLHTKNKLYTDFDEIRQEIENETERISGNNKGVSPEPIHLKIFSPNVVNLTLVDLPGMTKVPVGDQPKDIELQIRELILRFISNPNSIILAVTAANTDMATSEALKISREVDPDGRRTLAVITKLDLMDAGTDAMDVLMGRVIPVKLGIIGVVNRSQLDINNKKSVTDSIRDEYAFLQKKYPSLANRNGTKYLARTLNRLLMHHIRDCLPELKTRINVLAAQYQSLLNSYGEPVDDKSATLLQLITKFATEYCNTIEGTAKYIETSELCGGARICYIFHETFGRTLESVDPLGGLNTIDILTAIRNATGPRPALFVPEVSFELLVKRQIKRLEEPSLRCVELVHEEMQRIIQHCSNYSTQELLRFPKLHDAIVEVVTCLLRKRLPVTNEMVHNLVAIELAYINTKHPDFADACGLMNNNIEEQRRNRLARELPSAVSRDKVASGGGGVGDGVQEPTTGNWRGMLKTSKAEELLAEEKSKPIPIMPASPQKGHAVNLLDVPVPVARKLSAREQRDCEVIERLIKSYFLIVRKNIQDSVPKAVMHFLVNHVKDTLQSELVGQLYKSSLLDDLLTESEDMAQRRKEAADMLKALQGASQIIAEIRETHLW
notes: ORF amplified by PCR and cloned into pTYB1; numbers count on: isoform 3; also called Variant 3; Isoform-3 WT; source: E. coli Rosetta, purified (chitin resin with thiol-induced cleavage, Q sepharose, Sephadex S200)
Turning to B1, the “stoichiometry N” value in data set [2] is 2 and 4.

B2: Drp1 isoform 3 K557-560-569-571A (4KA mutant) (natural protein, human, UniProt O00429-4 1-699, looked up)
chain: MEALIPVINKLQDVFNTVGADIIQLPQIVVVGTQSSGKSSVLESLVGRDLLPRGTGIVTRRPLILQLVHVSQEDKRKTTGEENGVEAEEWGKFLHTKNKLYTDFDEIRQEIENETERISGNNKGVSPEPIHLKIFSPNVVNLTLVDLPGMTKVPVGDQPKDIELQIRELILRFISNPNSIILAVTAANTDMATSEALKISREVDPDGRRTLAVITKLDLMDAGTDAMDVLMGRVIPVKLGIIGVVNRSQLDINNKKSVTDSIRDEYAFLQKKYPSLANRNGTKYLARTLNRLLMHHIRDCLPELKTRINVLAAQYQSLLNSYGEPVDDKSATLLQLITKFATEYCNTIEGTAKYIETSELCGGARICYIFHETFGRTLESVDPLGGLNTIDILTAIRNATGPRPALFVPEVSFELLVKRQIKRLEEPSLRCVELVHEEMQRIIQHCSNYSTQELLRFPKLHDAIVEVVTCLLRKRLPVTNEMVHNLVAIELAYINTKHPDFADACGLMNNNIEEQRRNRLARELPSAVSRDKVASGGGGVGDGVQEPTTGNWRGMLATSAAEELLAEEASAPIPIMPASPQKGHAVNLLDVPVPVARKLSAREQRDCEVIERLIKSYFLIVRKNIQDSVPKAVMHFLVNHVKDTLQSELVGQLYKSSLLDDLLTESEDMAQRRKEAADMLKALQGASQIIAEIRETHLW
notes: Dynamin-related protein 1 (Drp1), human, splice variant 3 (lacking 37 residues in the B insert), all four B insert lysines replaced by alanine; numbers count on: isoform 3; also called Drp1-4KA; Drp1 4KA mutant; source: E. coli Rosetta, purified (chitin resin with thiol-induced cleavage, Q sepharose, Sephadex S200)
B2: in data set [3], the binding result is recorded as “binds”.
